Experimental data as given in patent US20250011456A1, “ANTIBODIES AGAINST CD14 AND USES THEREOF” (Villanelle Life Science Inc, priority 2023, published 2025).
Several values for one entry are separate records, joined by “and”; a condition that tells them apart may be missing. Equal entries are not always repeated.

System: CD14 positive recurrent bladder cancer patient-derived xenograft (PDX)
Test: Amount of anti-CD14-IgG1 (5-40 mg/kg) for tumor treatment in PDX mice (tumor length, width, volume, tumor weight; Example 7)
Format: in vivo
Settings: for Tumor Volume / Tumor Length / Tumor Width: per mouse 1-5; for Tumor weight after 28 days: individual mice 1-5
Text: After removing the primary tumor tissue from the patient, the tissue was temporarily placed in a complete culture medium containing RPMI1640 (Gibco Roswell Park Memorial Institute 1640 Media)+PS (penicillin and streptomycin)+10% FBS (Fetal bovine serum). The tissue was then transported to a sterile operating room within an SPF-grade (Specific Pathogen Free) animal facility. The tumor tissue was cut to an appropriate size (5 millimeters (mm) in diameter). Severely immunodeficient NSG (NOD scid gamma mouse) mice were anesthetized using an isoflurane respirator. The tumor was transplanted subcutaneously into the right rib area through surgery. When the tumor volume reached 1 cm^3, it was passaged following the same procedure, and after expanding for three generations, the tumor became stable for use in formal experiments. During the experiment, passaging and expansion were performed as needed. When the tumor volume reached 100 mm^3, the mice were divided into groups according to the experimental requirements and treated with drugs.
To evaluate concentrations for the anti-CD14-IgG1 antibody, PDX mice were treated with five different concentrations of the IgG1 antibody over a period of 28 days. For these experiments, drug administration on the PDX mice was performed intravenously on alternating 4 days and 3 days.
The five different concentrations of the anti-CD14-IgG1 antibody tested include 5 mg/kg, 10 mg/kg, 15 mg/kg, 25 mg/kg, and 40 mg/kg. A control regimen was utilized as a comparative example. […] The non-specific IgG1 has no binding affinity to antigen. […] Tumor weight and tumor volume were calculated as described above.

[1] = Day 11, IgG1 (5 mg/kg), 5 mg/kg
[2] = Day 14, IgG1 (5 mg/kg), 5 mg/kg
[3] = Day 18, IgG1 (5 mg/kg), 5 mg/kg
[4] = Day 21, IgG1 (5 mg/kg), 5 mg/kg
[5] = Day 25, IgG1 (5 mg/kg), 5 mg/kg
[6] = Day 28, IgG1 (5 mg/kg), 5 mg/kg

B1: D6DD3D001: mouse-derived anti-CD14 IgG1 antibody; VH SEQ ID NO: 1, VL SEQ ID NO: 3, heavy chain SEQ ID NO: 2, light chain SEQ ID NO: 4 (antibody)
heavy: DVQLQQSGPGLVKPSQSLSLTCTVTGYSITSDSAWNWIRQFPGNRLEWMGYISYSGSTSYNPSLKSRISITRDTSKNQFFLQLNSVTTEDTATYYCVRGLRFAYWGQGTLVTVSSPSVFLFPPKPKDTLMISRTPEVTCVVVDVSHEDPEVKFNWYVDGVEVHNAKTKPREEQYNSTYRVVSVLTVLHQDWLNGKEYKCKVSNKALPAPIEKTISKAKGQPREPQVYTLPPSREEMTKNQVSLTCLVKGFYPSDIAVEWESNGQPENNYKTTPPVLDSDGSFFLYSKLTVDKSRWQQGNVFSCSVMHEALHNHYTQKSLSLSPGK
light: DIVLTQSPASLAVSLGQRATISCRASESVDSYVNSFLHWYQQKPGQPPKLLIYRASNLQSGIPARFSGSGSRTDFTLTINPVEADDVATYYCQQSNEDPYTFGGGTKLEIKRTVAAPSVFIFPPSDEQLKSGTASVVCLLNNFYPREAKVQWKVDNALQSGNSQESVTEQDSKDSTYSLSSTLTLSKADYEKHKVYACEVTHQGLSSPVTKSFNRGEC
Tumor Volume (Day 7, IgG1 (10 mg/kg), 10 mg/kg): 112.99 mm^3 and 113.39 mm^3 and 121.55 mm^3 and 122.33 mm^3 and 133.44 mm^3
Tumor Volume (Day 7, IgG1 (15 mg/kg), 15 mg/kg): 99.31 mm^3 and 113.51 mm^3 and 118.44 mm^3 and 127.47 mm^3 and 152.88 mm^3
Tumor Length [1]: 6.48 mm and 6.63 mm and 6.74 mm and 6.44 mm and 7.52 mm
Tumor Volume [1]: 92.40 mm^3 and 103.06 mm^3 and 128.68 mm^3 and 130.81 mm^3 and 158.69 mm^3
Tumor Width [1]: 5.22 mm and 5.45 mm and 6.04 mm and 6.23 mm and 6.35 mm
Tumor Volume (Day 11, IgG1 (10 mg/kg), 10 mg/kg): 100.68 mm^3 and 105.14 mm^3 and 112.60 mm^3 and 143.90 mm^3 and 170.28 mm^3
Tumor Length [2]: 7.14 mm and 6.88 mm and 7.56 mm and 7.02 mm and 8.46 mm
Tumor Volume [2]: 128.31 mm^3 and 135.30 mm^3 and 170.26 mm^3 and 171.88 mm^3 and 184.76 mm^3
Tumor Width [2]: 5.86 mm and 6.13 mm and 6.56 mm and 6.84 mm and 6.46 mm
Tumor Volume (Day 14, IgG1 (10 mg/kg), 10 mg/kg): 109.71 mm^3 and 110.99 mm^3 and 134.85 mm^3 and 153.36 mm^3 and 165.63 mm^3
Tumor Length [3]: 7.91 mm and 7.24 mm and 8.45 mm and 8.16 mm and 8.08 mm
Tumor Volume [3]: 151.02 mm^3 and 169.58 mm^3 and 185.12 mm^3 and 218.31 mm^3 and 231.55 mm^3
Tumor Width [3]: 6.04 mm and 6.69 mm and 6.47 mm and 7.15 mm and 7.4 mm
Tumor Volume (Day 18, IgG1 (10 mg/kg), 10 mg/kg): 132.18 mm^3 and 141.82 mm^3 and 163.82 mm^3 and 192.29 mm^3 and 204.50 mm^3
Tumor Length [4]: 8.92 mm and 8.5 mm and 8.53 mm and 8.19 mm and 8.49 mm
Tumor Volume [4]: 191.80 mm^3 and 234.46 mm^3 and 261.25 mm^3 and 271.57 mm^3 and 289.36 mm^3
Tumor Width [4]: 6.41 mm and 7.26 mm and 7.65 mm and 7.96 mm and 8.07 mm
Tumor Volume (Day 21, IgG1 (10 mg/kg), 10 mg/kg): 218.53 mm^3 and 193.54 mm^3 and 221.69 mm^3 and 223.66 mm^3 and 268.23 mm^3
Tumor Length [5]: 8.73 mm and 9.67 mm and 9.91 mm and 9.97 mm and 9.69 mm
Tumor Volume [5]: 234.87 mm^3 and 334.49 mm^3 and 386.25 mm^3 and 465.95 mm^3 and 468.33 mm^3
Tumor Width [5]: 7.17 mm and 8.13 mm and 8.63 mm and 9.45 mm and 9.61 mm
Tumor Volume (Day 25, IgG1 (10 mg/kg), 10 mg/kg): 227.79 mm^3 and 282.78 mm^3 and 300.56 mm^3 and 329.18 mm^3 and 336.90 mm^3
Tumor Length [6]: 9.76 mm and 9.79 mm and 10.39 mm and 11.02 mm and 10.87 mm
Tumor Volume [6]: 333.47 mm^3 and 459.47 mm^3 and 555.77 mm^3 and 603.55 mm^3 and 637.97 mm^3
Tumor Width [6]: 8.08 mm and 9.47 mm and 10.11 mm and 10.23 mm and 10.59 mm
Tumor Volume (Day 28, IgG1 (10 mg/kg), 10 mg/kg): 231.00 mm^3 and 313.49 mm^3 and 338.93 mm^3 and 402.03 mm^3 and 419.55 mm^3
Tumor weight after 28 days (IgG1 5 mg/kg, 5 mg/kg): 0.486 grams and 0.535 grams and 0.567 grams and 0.502 grams and 0.625 grams
Tumor weight after 28 days (IgG1 10 mg/kg, 10 mg/kg): 0.341 grams and 0.302 grams and 0.267 grams and 0.285 grams and 0.386 grams
Tumor weight after 28 days (IgG1 15 mg/kg, 15 mg/kg): 0.215 grams and 0.202 grams and 0.246 grams and 0.253 grams and 0.291 grams
Tumor weight after 28 days (IgG1 25 mg/kg, 25 mg/kg): 0.158 grams and 0.184 grams and 0.191 grams and 0.204 grams and 0.211 grams
Tumor weight after 28 days (IgG1 40 mg/kg, 40 mg/kg): 0.128 grams and 0.195 grams and 0.199 grams and 0.205 grams and 0.206 grams
tumor inhibition level versus dosage (anti-CD14-IgG1 5 mg/kg to 15 mg/kg, 28 days): significantly increase with the dosage
tumor inhibition rate versus dosage (anti-CD14-IgG1 15 mg/kg to 40 mg/kg, 28 days): tumor inhibition rate remaining the same across the three groups
